According to patent US20120288506A1 (Eli Lilly, published 2012):

Experiments:
[1] = target: plasma membrane bound human c-Kit expressed by human tumor cells (Mo7e; also Malm-3M) (human, UniProt P10721 26-976); assay: cell-based or functional assay
[2] = target: T1, plasma membrane bound mouse (p815) c-Kit expressed by mouse tumor cells (p815) (mouse, UniProt P05532 25-979); assay: flow cytometry on whole live P815 cells
T1 construct: whole, on cells; also called c-Kit on P815 cells
Protocol: Species specificity of c-Kit mAbs can be further tested for their binding to plasma membrane bound c-Kit expressed on the surface of human Mo7e and mouse P815 cells based on the flow cytometry analysis (see, e.g., WO2004/007735). Briefly, whole, live human Mo7e and mouse P815 cells are serum starved overnight, washed 3 times in cold blocking buffer (5% FBS in PBS), and then resuspended in 100 μl of blocking buffer. An anti-c-Kit antibody is added at 1.0 μg/ml and the mixture is incubated for 30 minutes at 4° C. A secondary fluorescence-conjugated antibody (Jackson ImmunoResearch) is added at 1.0 μg/ml to detect human antibody bound to the cell surface via flow cytometry analysis.

[3] = target: T2, recombinant mouse c-Kit (rm-c-Kit; Gln26-Thr519) (R&D Systems) (mouse, UniProt P05532 26-519); assay: ELISA, plate coated with rm-c-Kit 1 ug/ml
T2 construct: also called mouse c-Kit (1.0 ug/ml)
T2 sequence (looked up): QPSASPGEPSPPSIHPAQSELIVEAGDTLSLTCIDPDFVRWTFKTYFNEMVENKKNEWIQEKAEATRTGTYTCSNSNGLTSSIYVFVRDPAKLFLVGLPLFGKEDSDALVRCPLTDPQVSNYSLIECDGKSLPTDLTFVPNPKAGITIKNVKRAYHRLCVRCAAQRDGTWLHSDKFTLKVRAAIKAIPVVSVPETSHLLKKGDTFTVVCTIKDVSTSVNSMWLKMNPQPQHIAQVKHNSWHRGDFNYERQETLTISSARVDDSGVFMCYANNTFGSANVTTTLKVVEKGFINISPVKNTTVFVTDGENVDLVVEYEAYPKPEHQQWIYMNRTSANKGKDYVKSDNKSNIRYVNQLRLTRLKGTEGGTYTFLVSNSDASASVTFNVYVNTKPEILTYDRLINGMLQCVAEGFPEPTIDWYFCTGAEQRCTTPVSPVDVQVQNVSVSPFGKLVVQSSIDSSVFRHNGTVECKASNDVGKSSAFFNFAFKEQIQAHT
Protocol: (§1) The species binding specificity of anti-human c-Kit mAbs can be determined by measuring the reactivity of the antibodies to human, cynomolgus, and mouse c-Kit proteins in an ELISA. […] Following washes, wells are blocked with 3% PBS/milk. Serial dilutions of human anti-human-c-Kit mAbs are then added to the c-Kit-coated wells and allowed to incubate for two hours at room temperature. Following several washes, a 1:1000 dilution of anti-human IgG-HRP conjugated antibody is added to the plates for one hour at room temperature in order to detect bound human antibody. Plates are washed and HRP substrate is added to each well and incubated until blue color is developed. Stop solution is added and absorbance is measured at 450 nm.

[4] = target: T3, cynomolgus c-Kit (cyno-c-Kit; Met1-His549 prepared recombinantly) (cynomolgus); assay: ELISA, plate coated with cyno-c-Kit 1 ug/ml
T3 construct: The printed range starts at Met1, so it includes the signal peptide of the expressed construct; also called cynomologus c-Kit; cynomolgus c-Kit (1.0 ug/ml)
Protocol: as §1

[5] = target: T4, recombinant human c-Kit (rh-c-Kit) protein (R&D Systems) (human, UniProt P10721 26-520, limits assumed); assay: SPR (BIAcore), rh-c-kit immobilized on CM5 chip, 25 C
T4 construct: also called human c-Kit protein; human c-Kit (1.0 ug/ml)
T4 sequence (P10721 26-520 limits assumed): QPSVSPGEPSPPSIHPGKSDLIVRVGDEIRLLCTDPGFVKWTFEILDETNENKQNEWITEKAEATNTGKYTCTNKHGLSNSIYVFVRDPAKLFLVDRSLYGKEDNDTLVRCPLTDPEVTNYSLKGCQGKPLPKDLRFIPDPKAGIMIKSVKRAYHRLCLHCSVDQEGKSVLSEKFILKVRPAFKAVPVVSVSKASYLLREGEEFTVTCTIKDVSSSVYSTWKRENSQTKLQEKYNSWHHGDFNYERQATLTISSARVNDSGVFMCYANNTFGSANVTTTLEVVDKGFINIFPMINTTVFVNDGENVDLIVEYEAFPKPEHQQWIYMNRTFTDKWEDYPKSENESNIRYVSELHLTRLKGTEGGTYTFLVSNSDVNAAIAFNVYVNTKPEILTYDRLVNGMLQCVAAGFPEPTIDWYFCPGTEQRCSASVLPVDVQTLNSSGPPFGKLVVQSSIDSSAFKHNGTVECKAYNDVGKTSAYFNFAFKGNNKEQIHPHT

[6] = target: T4, recombinant human c-Kit (rh-c-Kit) …; assay: ELISA, plate coated with rh-c-Kit 1 ug/ml, anti-human IgG-HRP detection
Protocol: Following washes, wells are blocked with 3% PBS/milk. […] Plates are washed and HRP substrate is added to each well and incubated until blue color is developed. Stop solution is added and absorbance is measured at 450 nm.

[7] = target: T4, recombinant human c-Kit (rh-c-Kit) …; assay: blocking ELISA: CK6 pre-incubated with rh-c-Kit, added to SCF-coated wells
Protocol: Purified mAbs can be also tested for their ability to block the binding of c-Kit and its ligand. […] Following washes, wells are blocked with 3% PBS/milk. […] Following several washes (3-5), a 1:1000 dilution of anti-human IgG-HRP conjugated antibody is added to the plates for one hour at room temperature. Plates are washed in 0.2% Tween-PBS and HRP substrate is added to each well and incubated until blue color is developed. Stop solution is added and absorbance is measured at 450 nm.

plasma membrane bound human c-Kit expressed by human tumor cells (Mo7e; also Malm-3M), sequence (P10721 26-976): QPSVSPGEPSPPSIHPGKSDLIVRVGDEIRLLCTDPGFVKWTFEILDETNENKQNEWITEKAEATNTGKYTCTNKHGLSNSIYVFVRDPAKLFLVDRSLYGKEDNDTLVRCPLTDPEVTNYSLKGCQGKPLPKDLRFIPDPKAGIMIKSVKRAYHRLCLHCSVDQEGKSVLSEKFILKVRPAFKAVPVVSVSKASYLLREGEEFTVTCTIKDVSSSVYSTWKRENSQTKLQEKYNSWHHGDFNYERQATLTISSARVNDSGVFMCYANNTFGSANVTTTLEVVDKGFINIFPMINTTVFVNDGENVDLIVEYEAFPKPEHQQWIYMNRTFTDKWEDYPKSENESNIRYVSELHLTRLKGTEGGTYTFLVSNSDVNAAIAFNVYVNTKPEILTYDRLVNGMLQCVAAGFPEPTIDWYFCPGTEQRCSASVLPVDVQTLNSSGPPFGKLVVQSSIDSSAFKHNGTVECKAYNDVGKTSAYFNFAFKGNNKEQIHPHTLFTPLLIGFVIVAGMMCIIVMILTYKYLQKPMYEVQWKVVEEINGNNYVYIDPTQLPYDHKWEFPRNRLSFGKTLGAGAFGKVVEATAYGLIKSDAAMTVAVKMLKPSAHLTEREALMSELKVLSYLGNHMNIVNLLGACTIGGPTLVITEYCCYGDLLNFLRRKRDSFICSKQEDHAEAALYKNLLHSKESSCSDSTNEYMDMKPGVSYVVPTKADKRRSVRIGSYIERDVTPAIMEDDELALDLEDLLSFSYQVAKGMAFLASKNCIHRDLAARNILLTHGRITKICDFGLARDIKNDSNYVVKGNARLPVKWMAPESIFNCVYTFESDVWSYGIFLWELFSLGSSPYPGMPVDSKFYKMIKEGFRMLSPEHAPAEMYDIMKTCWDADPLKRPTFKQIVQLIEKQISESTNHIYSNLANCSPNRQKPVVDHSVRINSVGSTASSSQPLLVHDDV
T1 sequence (P05532 25-979): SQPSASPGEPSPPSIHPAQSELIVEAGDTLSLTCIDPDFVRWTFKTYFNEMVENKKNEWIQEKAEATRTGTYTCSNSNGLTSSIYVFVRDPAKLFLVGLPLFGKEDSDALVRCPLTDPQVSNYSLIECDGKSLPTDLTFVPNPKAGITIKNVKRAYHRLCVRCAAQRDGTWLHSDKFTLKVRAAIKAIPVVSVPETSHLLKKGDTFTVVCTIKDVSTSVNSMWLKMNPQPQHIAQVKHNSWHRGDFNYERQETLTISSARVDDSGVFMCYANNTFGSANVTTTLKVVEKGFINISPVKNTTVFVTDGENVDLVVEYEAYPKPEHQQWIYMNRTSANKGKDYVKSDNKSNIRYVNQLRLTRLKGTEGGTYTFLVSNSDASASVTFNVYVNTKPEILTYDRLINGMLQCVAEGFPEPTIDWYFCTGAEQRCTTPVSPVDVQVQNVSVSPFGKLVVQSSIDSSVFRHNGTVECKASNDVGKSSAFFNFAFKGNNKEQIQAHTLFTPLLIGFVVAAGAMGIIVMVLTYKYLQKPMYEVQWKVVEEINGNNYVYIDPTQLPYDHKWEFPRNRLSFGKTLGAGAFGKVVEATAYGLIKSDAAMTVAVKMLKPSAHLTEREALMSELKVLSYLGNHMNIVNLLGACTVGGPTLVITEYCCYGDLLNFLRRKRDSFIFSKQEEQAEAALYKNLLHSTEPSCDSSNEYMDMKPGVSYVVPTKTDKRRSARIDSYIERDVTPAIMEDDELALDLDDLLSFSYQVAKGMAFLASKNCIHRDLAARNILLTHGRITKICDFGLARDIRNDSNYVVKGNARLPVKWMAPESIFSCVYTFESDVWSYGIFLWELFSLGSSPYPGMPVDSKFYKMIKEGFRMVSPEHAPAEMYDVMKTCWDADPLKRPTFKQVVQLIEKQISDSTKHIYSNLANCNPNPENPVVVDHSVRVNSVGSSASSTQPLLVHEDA

B1: anti-human c-Kit monoclonal antibody CK6 (antibody, human IgG1, kappa, V domains shown)
VH: QVQLVQSGAAVKKPGESLKISCKGSGYRFTSYWIGWVRQMPGKGLEWMGIIYPGDSDTRYSPSFQGQVTISAGKSISTAYLQWSSLKASDTAMYYCARHGRGYNGYEGAFDIWGQGTMVTVSS
VL: AIQLTQSPSSLSASVGDRVTITCRASQGISSALAWYQQKPGKAPKLLIYDASSLESGVPSRFSGSGSGTDFTLTISSLQPEDFATYYCQQFNSYPLTFGGGTKVEIKR
notes: also called mAb CK6; anti-c-Kit mAb CK6
[1]
  IC50 of inhibition of c-Kit and MAPK phosphorylation in response to SCF in Mo7e ('Mole') leukemia cells, western blot: 0.3 nM
[2]
  binding result: no binding (tested: 1.0 µg/ml)
[3]
  binding result: no binding
[4]
  EC50: 0.057 nM
[5]
  Kd: 0.066 nM
[6]
  EC50: ~0.03 nM
[7]
  IC50: ~0.04 nM
